Values joined by “and” are separate entries in the source; they are usually repeats but may differ in a detail not shown here. Identical values can stand only once.
Key:
[1] = target: T1, Δ34 Pox (Lactobacillus delbrueckii, UniProt Q1G7Z6); experiment: fold activity relative to no phospholipid, same coupled assay; assay type: biochemical; conditions: activator; 50 mM pyruvate, 50 mM phosphate, 15 μM FAD, 300 μM TPP, pH 5.6, 25 °C; lipid suspension
T1 construct: gene pox1; C-terminal truncation lacking the last 34 residues, C-terminal His6, vector pFLAG-CTC, expressed in E. coli LOBSTR
T1 sequence (Q1G7Z6 1-582): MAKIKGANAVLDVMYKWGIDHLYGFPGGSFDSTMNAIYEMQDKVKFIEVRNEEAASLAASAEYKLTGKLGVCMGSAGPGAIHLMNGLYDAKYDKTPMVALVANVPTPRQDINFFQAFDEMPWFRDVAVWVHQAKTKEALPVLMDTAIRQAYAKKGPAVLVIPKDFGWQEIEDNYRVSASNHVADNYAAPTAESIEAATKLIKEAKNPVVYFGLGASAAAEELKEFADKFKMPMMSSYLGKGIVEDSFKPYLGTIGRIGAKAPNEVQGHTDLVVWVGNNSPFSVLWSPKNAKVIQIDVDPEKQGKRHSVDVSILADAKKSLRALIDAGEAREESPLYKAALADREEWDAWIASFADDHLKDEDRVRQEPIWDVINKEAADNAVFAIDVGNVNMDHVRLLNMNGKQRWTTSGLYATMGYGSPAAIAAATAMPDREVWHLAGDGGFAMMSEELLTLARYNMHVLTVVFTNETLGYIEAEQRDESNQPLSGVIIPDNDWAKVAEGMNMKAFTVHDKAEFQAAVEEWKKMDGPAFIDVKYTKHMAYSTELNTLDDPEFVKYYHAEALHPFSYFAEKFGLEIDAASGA

[2] = target: Pyruvate oxidase (Pox) from Lactobacillus delbrueckii strain STYM1 (Lactobacillus delbrueckii STYM1); experiment: non-reducing SDS-PAGE; Coomassie stain of gel filtration fractions and of purified Pox after SDS-PAGE under non-reducing conditions; disulfide-linked dimer
[3] = target: Pyruvate oxidase (Pox) from Lactobacillus delbrueckii strain STYM1 (Lactobacillus delbrueckii STYM1); experiment: SEC; Superdex 200, 20 mM Bis-Tris pH 6, 150 mM NaCl, 0.5 mL/min; 840 ug purified Pox pre-incubated with 50 mM pyruvate, 300 uM TPP, 15 uM FAD for 10 min at room temperature; molecular weight from a standard curve of protein standards

CCCCCCCC/C=C\CCCCCCCC(=O)O[C@H](COC(=O)CCCCCCCCCCCCCCC)COP(=O)(O)OCCN [phosphotidylethanolamine (16:0–18:1)]
fold activity [1]: ~ 2 fold

Pyruvate oxidase (Pox) from Lactobacillus delbrueckii strain STYM1 (enzyme)
stoichiometry N [2]: 2 | stoichiometry N [3]: 10 and 5
